Reference: US20110183922A1 (UNIVERSITY OF MIAMI, published 2011)

Each binder was assayed against AChE expressed in COS cells (human and/or mouse AChE) (human and/or mouse) (assay: cell-based or functional assay).

Binder | G4 AChE level
VNKCCLLTPPPPPLFPPPFFTETLDEL [SEQ ID NO: 8] | 2.17
VNKCCLLTPPPPPLFPPPFFKDEL [SEQ ID NO: 6] | 2.26
KRSVNKCCLLTPPPPPLFPPPFFTETNILKDEL [SEQ ID NO: 11] | 2.14
KRSVNKCCLLTPPPPPLFPPPFFKDEL [SEQ ID NO: 9] | 2.37
CCLLTPPPPPLFPPPFFKDEL [ColQ PRAD-KDEL peptide] | 2.37

The binders below were run against AChE of primary quail muscle cells (quail) (assay: cell-based or functional assay).

Binder | tetrameric G4 AChE activity in the medium (velocity sedimentation, 10 uM peptide overnight) [fold]
CCLLTPPPPPLFPPPFF [ColQ PRAD peptide (17 amino acid ColQ PRAD polypeptide)] | > 2
